Experimental data taken from PMC11603049.

Biological target: MARV NPcore (VP35 NPBP removed by TEV) (Marburg virus (Mt. Elgon-Musoke strain), UniProt P27588 1-430)
Sequence (P27588 1-430): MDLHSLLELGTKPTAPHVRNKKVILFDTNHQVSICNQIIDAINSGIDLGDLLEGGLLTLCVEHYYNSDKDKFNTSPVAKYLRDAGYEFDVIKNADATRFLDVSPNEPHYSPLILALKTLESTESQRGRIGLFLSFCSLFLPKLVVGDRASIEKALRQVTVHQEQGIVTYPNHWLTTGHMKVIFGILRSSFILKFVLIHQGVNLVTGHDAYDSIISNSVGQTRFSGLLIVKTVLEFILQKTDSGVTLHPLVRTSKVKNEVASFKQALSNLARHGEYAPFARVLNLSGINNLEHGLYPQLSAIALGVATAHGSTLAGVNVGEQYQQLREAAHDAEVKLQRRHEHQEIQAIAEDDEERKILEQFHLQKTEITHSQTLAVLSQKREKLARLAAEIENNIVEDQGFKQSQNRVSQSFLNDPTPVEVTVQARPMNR

AGACACACAAAAACAAGA (ssRNA) [18 nt ssRNA, first 18 bases of the MARV genome]: binds.
